{"source": "paper PMC10651883", "about": "“M. mazei glutamine synthetase and glutamine synthetase-GlnK1 structures reveal enzyme regulation by oligomer modulation” (Nature Communications, 2023)", "molecules": {"B1": {"name": "Methanosarcina mazei glutamine synthetase (enzyme)", "chain": "MVQMKKCTTKEDVLEAVKERDVKFIRTQFTDTLGIIKSWAIPAEQLEEAFENGVMFDGSSIQGFTRIEESDMKLALDPSTFRILPWRPATGAVARILGDVYLPDGNPFKGDPRYVLKTAIKEAEKMGFSMNVGPELEFFLFKLDANGNPTTELTDQGGYFDFAPLDRAQDVRRDIDYALEHMGFQIEASHHEVAPSQHEIDFRFGDVLCTADNVVTFKYVVKSIAYHKGYYASFMPKPLFGVNGSGMHSNQSLFKDGKNVFYDPDTPTKLSQDAMYYIGGLLKHIREFTAVTNPVVNSYKRLVPGYEAPVYISWSAQNRSSLIRIPATRGNGTRIELRCPDPACNPYLAFALMLRAGLEGIKNKIDPGEPTNVNIFHLSDKEREERGIRSLPADLKEAIDEMKGSKFVKEALGEHVFSHYLCAKEMEWDEYKAVVHPWELSRYLSML", "notes": "glutamine synthetase (GS) of Methanosarcina mazei; gene bought from Genscript, in pET15b; Oligomeric state depends on concentration: dimers at 75 nM, dodecamers and partial oligomers at about 20 uM (1 mg/mL); also called Mm GS; WT Mm GS; source: E. coli C41(DE3), purified (cobalt NTA TALON)"}, "B2": {"name": "Mm GS(R167L-A168G) (enzyme, Methanosarcina mazei)", "chain": "B1 chain with R167L, A168G", "notes": "glutamine synthetase (GS) of Methanosarcina mazei with R167L and A168G; gene bought from Genscript, in pET15b; everywhere else R167L; also called mutant Mm GS; source: E. coli C41(DE3), purified (cobalt NTA TALON)"}, "B3": {"name": "Bacillus subtilis glutamine synthetase (enzyme)", "chain": "AKYTREDIEKLVKEENVKYIRLQFTDILGTIKNVEIPVSQLGKALDNKVMFDGSSIEGFVRIEESDMYLYPDLNTFVIFPWTAEKGKVARFICDIYNPDGTPFEGDPRNNLKRILKEMEDLGFSDFNLGPEPEFFLFKLDEKGEPTLELNDKGGYFDLAPTDLGENCRRDIVLELEEMGFEIEASHHEVAPGQHEIDFKYAGAVRSCDDIQTFKLVVKTIARKHGLHATFMPKPLFGVNGSGMHCNLSLFKNGVNAFFDENADLQLSETAKHFIAGIVKHATSFTAVTNPTVNSYKRLVPGYEAPCYVAWSAQNRSPLIRIPASRGISTRVEVRSVDPAANPYLALSVLLAAGLDGIKNKLEAPAPIDRNIYVMSKEERMENGIVDLPATLAEALEEFKSNEVMVKALGEHLFEHFIEAKEIEWDMFRTQVHPWEREQYMSQY", "notes": "glutamine synthetase (GS) of Bacillus subtilis; also called Bs GS; apo Bs GS"}, "B4": {"name": "Methanosarcina mazei GlnK1 (natural protein)", "chain": "MVAMKYVIAMIRPERLDAVKRELQKIEVSRLTVSSVSGYGAQKGYMEIYRAMEYDANLLEKIKIEIAVNDEFLEPTIEAIKTGAKGSDGYVGSGKIFVLPLENVIRIRTNETGPEAI", "notes": "GlnK1, PII family nitrogen regulatory protein of Methanosarcina mazei; gene bought from Genscript, in pET15b; Trimer in the crystal structure of the complex with GS; also called Mm GlnK1; WT GlnK1; source: E. coli C41(DE3), purified (cobalt NTA TALON)"}}, "key": {"Mm GS": {"molecular_target": "T1, Mm GS (Methanosarcina mazei, UniProt Q8PY99)", "T1 construct": "gene glnA1; labile dodecamer (two hexamer rings), active site between two subunits; catalytic residues Asp57, Glu307", "experiment": "cryo-EM structure, […] A", "type": "binding", "conditions": "formed in situ from ATP; with Met-Sox-P; 5 mM MgCl2, pH 7.5; active site"}, "[1]": {"molecular_target": "the molecule itself", "experiment": "cryo-EM structure; apo Mm GS at ~20 uM (1.0 mg/mL), 12.5 mM Tris pH 7.5, 5 mM MgCl2, 150 mM NaCl, 2.5% glycerol, 1 mM bME; dodecamer and partial oligomer from one dataset"}, "[2]": {"molecular_target": "the molecule itself", "experiment": "mass photometry; protein at 75 nM final, 20 mM Tris pH 7.5, 150 mM NaCl, room temperature; Refeyn OneMP; four measurements"}, "[3]": {"molecular_target": "the molecule itself", "experiment": "crystal structure; Mm GS(R167L-A168G), 35% PEG 200, 0.1 M sodium citrate pH 5.5; three subunits in the asymmetric unit, symmetry generates the dodecamer"}, "[4]": {"molecular_target": "T2, Methanosarcina mazei glutamine synthetase (Methanosarcina mazei), Q8PY99", "T2 chain": "B1 chain", "experiment": "fluorescence polarisation; apparent; GS titrated to saturation into 1 nM Fluorescein-12-ATP, then GlnK1 titrated in; 25 mM Tris pH 7.5, 100 mM NaCl, 1 mM MgCl2", "conditions": "remark: other sources report otherwise"}, "[5]": {"molecular_target": "the molecule itself", "experiment": "crystal structure; Mm GS-GlnK1 complex formed by mixing ~2:1 (excess GlnK1) and SEC; 30% PEG 400, 0.1 M sodium cacodylate pH 6.5, 0.1 M LiSO4"}}, "note": "Changes are numbered by the printed parent chain. Names and notes keep the numbering of the source.", "data": [{"molecule": "Nc1ncnc2c1ncn2[C@@H]1O[C@H](COP(=O)(O)OP(=O)(O)O)[C@@H](O)[C@H]1O", "note": "[ADP]", "values": [{"measurement": "cryo-EM structure, 2.7 A", "setting": "Mm GS", "value": "In the Mm GS TS structure, the ADP is anchored into the active site pocket"}]}, {"molecule": "B1", "values": [{"measurement": "stoichiometry N", "setting": "[1]", "value": 12}, {"measurement": "stoichiometry N", "setting": "[2]", "value": 2}]}, {"molecule": "B2", "values": [{"measurement": "stoichiometry N", "setting": "[3]", "value": 12}]}, {"molecule": "B3", "values": [{"measurement": "stoichiometry N", "setting": "[2]", "value": 12}]}, {"molecule": "B4", "values": [{"measurement": "Kd", "setting": "[4]", "value": 6.4, "unit": "µM"}, {"measurement": "stoichiometry N", "setting": "[5]", "value": 3}]}]}
